# B1: Escherichia coli glucokinase (enzyme, E. coli)
# chain: MTKYALVGDVGGTNARLALCDIASGEISQAKTYSGLDYPSLEAVIRVYLEEHKVEVKDGCIAIACPITGDWVAMTNHTWAFSIAEMKKNLGFSHLEIINDFTAVSMAIPMLKKEHLIQFGGAEPVEGKPIAVYGAGTGLGVAHLVHVDKRWVSLPGEGGHVDFAPNSEEEAIILEILRAEIGHVSAERVLSGPGLVNLYRAIVKADNRLPENLKPKDITERALADSCTDCRRALSLFCVIMGRFGGNLALNLGTFGGVFIAGGIVPRFLEFFKASGFRAAFEDKGRFKEYVHDIPVYLIVHDNPGLLGSGAHLRQTLGHIL
# notes: Escherichia coli glucokinase (glk gene cloned into pCDF-1b); Expression and purification follow Fatema et al., 2024; also called GLK; ecGLK; source: E. coli BL21 (DE3), purified (Ni-NTA, PD10 desalting)
# Target: the molecule itself
# Assay: crystal structure; phosphate-bound ecGLK, space group P4_(3)2_(1)2; crystals grown in 100 mM Tris-HCl pH 8.5, 200 mM lithium sulfate, 20%(w/v) PEG 5000 MME; data collected at room temperature; molecular replacement with PDB 1q18
protein,measurement,value
B1,stoichiometry N,2
